Holding throughout (assay): MST
Assay [1] addresses T1, FoTO1(ΔC), FoTO1 with the C-terminal α-helix deleted, fused to N-terminal mTurquoise2 (Taxus media).
For assay [2], the target named is T2, FoTO1 (facilitator of taxane oxidation), fused to N-terminal mTurquoise2 (Taxus media).
Assay [3] addresses T1, FoTO1(ΔC), FoTO1 with the C-terminal …. The source holds these as a separate data set.
For assay [4], the target named is T2, FoTO1 (facilitator of taxane …). The source holds these as a separate data set.

These results are taken from paper PMC12240809 (2025).

Like-named read-outs stand apart in the source and are kept apart here. Bounds are passed on as bounds.

B1: taxadiene 5α-hydroxylase (T5αH), soluble portion, 47 N-terminal amino acids removed (enzyme)
chain: SSLKLPPGKLGIPFIGESFIFLRALRSNSLEQFFDERVKKFGLVFKTSLIGHPTVVLCGPAGNRLILSNEEKLVQMSWPAQFMKLMGENSVATRRGEDHIVMRSALAGFFGPGALQSYIGKMNTEIQSHINEKWKGKDEVNVLPLVRELVFNISAILFFNIYDKQEQDRLHKLLETILVGSFALPIDLPGFGFHRALQGRAKLNKIMLSLIKKRKEDLQSGSATATQDLLSVLLTFRDDKGTPLTNDEILDNFSSLLHASYDTTTSPMALIFKLLSSNPECYQKVVQEQLEILSNKEEGEEITWKDLKAMKYTWQVAQETLRMFPPVFGTFRKAITDIQYDGYTIPKGWKLLWTTYSTHPKDLYFNEPEKFMPSRFDQEGKHVAPYTFLPFGGGQRSCVGWEFSKMEILLFVHHFVKTFSSYTPVDPDEKISGDPLPPLPSKGFSIKLFPRP
modifications: RED-tris-NTA dye on the His tag (NanoTemper His-Tag labelling kit)
Regarding B1, the Kd in assay [1] was greater than 10000 nM; in assay [2], 470 nM.

B2: taxadiene synthase 2 (TDS2), soluble portion, 60 N-terminal amino acids removed (enzyme)
chain: SGSPTKLATENANAVAESNLIPRLSANYHGDLWHHGVIQTLQTPYQESSSYQERAEELIVKIKDMFKAVEEGAISPSAYDTAWVARVPDGSEKPRFPQALNWLLHNQLQDGSWGLESHFMLSDRLLSTLNSVISLLVWKTGQQQVEQGTLFITENLKLLEGEDELPPDFEIIFPALLQKAKALGMSLPDHDLPFIKSLSVAREARLASYTDNNIPASMLNALEGLEEVIDWDKIMRFQMPCLYSIDLLERLSLVDNIEHLGIGRHFKQEIKVALDYVYRYWSERGIGLGRDSLIPDLNTTALGLRTLRAHGYNVSSEVLNNFKDENGRFFSSLGQTHVELRSMVNLLRASDLAFPDEPLMDDAKIFAEAYLRDALATRISTNTKLFKEIDYAVEYPWHMSIPRLEARSYIDVYDDDYTWQNKTLYRMSNLSNAYCLELAKLDFNIVQSLHQEELKLLTRWWKESGMADINFTRHRVAEVYFSSATFEPEYSSTRIAFTKIGCLQVLFDDMADIFATLDELRDFTEGVKRWDTSLIHKLPDCMQTCFRVWFNLMEEVNNDVSNVQGRDMLNHIRKPWELYFNCYVQEREWLDAGYIPTLEEYLKTYSISVGLGPCTLQPILLMGDIVKDDVVEKVHYPSNLFELVSLSWRLTNDTKTYQAEKARGQQASGIACYMKDNPGSTEEDAIKYICGVVDRALKEACFEYFKPADDVPMSCKSFIFNLRLCVQIFYKFIDGYGIANEEIKDYIRKVYIEPIQV
modifications: RED-tris-NTA dye on the His tag (NanoTemper His-Tag labelling kit)
Take B2: the Kd in assay [3] is greater than 10000 nM; in assay [4], 610 nM.
